Measurements published in article PMC2755859.

Columns and labels:
pICln = pICln (UniProt P54105); experiment: AUC
PRMT5cat (human) = PRMT5cat (human) (UniProt O14744); experiment: AUC

Sequence of pICln (P54105 whole entry): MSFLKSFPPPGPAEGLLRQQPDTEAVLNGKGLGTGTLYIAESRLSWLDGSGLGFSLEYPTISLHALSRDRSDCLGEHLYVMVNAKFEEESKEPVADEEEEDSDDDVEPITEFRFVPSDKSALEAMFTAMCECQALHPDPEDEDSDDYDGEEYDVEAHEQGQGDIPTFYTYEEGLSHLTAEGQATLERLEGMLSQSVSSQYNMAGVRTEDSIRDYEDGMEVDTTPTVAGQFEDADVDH
Sequence of SmD3 (P62318 whole entry): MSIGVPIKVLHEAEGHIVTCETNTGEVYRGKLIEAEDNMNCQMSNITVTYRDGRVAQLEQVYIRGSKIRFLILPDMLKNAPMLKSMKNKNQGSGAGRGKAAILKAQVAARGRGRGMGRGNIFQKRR

Substance | stoichiometry N (pICln) | Kd (PRMT5cat (human)) | stoichiometry N (PRMT5cat (human))
SmD3 (from UniProt P62318 1-126) (natural protein) | 1 |  | 
PRMT5cat (from UniProt O14744 296-637) (domain or fragment) |  | 20 µM | 2
